Reference: publication doi:10.1101/2025.02.27.640495

Molecular target: Cro-6His (Cro-like repressor of phage phi10403S) (Listeria monocytogenes 10403S prophage …, UniProt A0A0H3GJS2 1-67)
Test: EMSA

B1: Cro operator probe, native (dsDNA)
DNA 1: TTATAGAGAAACAAAACGTTTCTTTTGG
DNA 2: CCAAAAGAAACGTTTTGTTTCTCTATAA
How did the Kd turn out when B1 was run?
The Kd was 321 nM.
